Assay results as given in patent US20090208453A1 (NURON BIOTECH, published 2009).

Target: T1, recombinant human interferon-alpha/beta R2 receptor Fc chimera (R&D Systems, Product 4015-AB) (human, UniProt P48551 27-243)
T1 construct: Bought reagent, coated onto ELISA plates; also called rhIFN-R2 Fc; Fc part of the bought chimera not given
T1 sequence (looked up): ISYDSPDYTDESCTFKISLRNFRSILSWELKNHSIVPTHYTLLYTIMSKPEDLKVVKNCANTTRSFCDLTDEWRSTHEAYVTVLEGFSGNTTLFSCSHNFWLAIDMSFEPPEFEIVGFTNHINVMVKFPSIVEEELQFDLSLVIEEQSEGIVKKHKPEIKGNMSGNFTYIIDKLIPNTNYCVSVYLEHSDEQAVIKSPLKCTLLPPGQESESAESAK
Experiment: Receptor binding (competition): displacement of 125I-IFN-alpha from plate-coated rhIFN-R2 Fc; untreated and RP-HPLC-purified samples
Description: Receptor binding competition assays were performed using purified rhIFN-beta1b from Bar 25 protein and BETASERON, and unprocessed Bar 25 protein and BETASERON. The assay was performed using the recombinant human interferon-alpha/beta R2 receptor Fc (rhIFN-R2 Fc) chimera (R&D Systems, Product 4015-AB). This receptor binds both interferon-alpha and interferon-beta. ¹²⁵I-human interferon-alpha (¹²⁵I-IFN-alpha) was used as the competing reagent to avoid potential effects of radiolabeling on the rhIFN-beta1b products. rhIFN-R2 Fc was coated onto ELISA plates and ¹²⁵I-IFN-alpha was added at a fixed concentration to each well. […] Unlabeled IFN-alpha was used as a control. The amount of ¹²⁵I-IFN-alpha remaining bound to rhIFN-R2 Fc after the competition was measured and plotted as a function of the rhIFN-beta1b concentration. The resulting curves for each product and purified rhIFN-beta1b sample were compared.

binding result: binds
B1: Bar 25 protein (recombinant human interferon beta-1b, C17S IFN-beta-1b, refolded under high pressure) (ligand)
chain: SYNLLGFLQRSSNFQSQKLLWQLNGRLEYCLKDRMNFDIPEEIKQLQQFQKEDAALTIYEMLQNIFAIFRQDSSSTGWNETIVENLLANVYHQINHLKTVLEEKLEKEDFTRGKLMSSLHLKRYYGRILHYLKAKEYSHCAWTIVRVEILRNFYFINRLTGYLRN
notes: Non-glycosylated, expressed in E. coli; It was tested untreated and after RP-HPLC/SEC-HPLC isolation; The research-grade material was partially deamidated; also called rhIFN beta-1b; rhIFN-beta1b
